Assay results: patent US20260209362A1 (VIB VZW, published 2026)
Where a chain is given by its changes, count along the chain named.

T1: human IL-12Rβ2 (human, UniProt Q99665 24-862)
T1 construct: Expressed on HEK293T cells transiently transfected with a pcDNA3 plasmid (Genscript clone OHu21785); also called hIL-12RB2; IL-12 receptor β2 subunit
T1 sequence: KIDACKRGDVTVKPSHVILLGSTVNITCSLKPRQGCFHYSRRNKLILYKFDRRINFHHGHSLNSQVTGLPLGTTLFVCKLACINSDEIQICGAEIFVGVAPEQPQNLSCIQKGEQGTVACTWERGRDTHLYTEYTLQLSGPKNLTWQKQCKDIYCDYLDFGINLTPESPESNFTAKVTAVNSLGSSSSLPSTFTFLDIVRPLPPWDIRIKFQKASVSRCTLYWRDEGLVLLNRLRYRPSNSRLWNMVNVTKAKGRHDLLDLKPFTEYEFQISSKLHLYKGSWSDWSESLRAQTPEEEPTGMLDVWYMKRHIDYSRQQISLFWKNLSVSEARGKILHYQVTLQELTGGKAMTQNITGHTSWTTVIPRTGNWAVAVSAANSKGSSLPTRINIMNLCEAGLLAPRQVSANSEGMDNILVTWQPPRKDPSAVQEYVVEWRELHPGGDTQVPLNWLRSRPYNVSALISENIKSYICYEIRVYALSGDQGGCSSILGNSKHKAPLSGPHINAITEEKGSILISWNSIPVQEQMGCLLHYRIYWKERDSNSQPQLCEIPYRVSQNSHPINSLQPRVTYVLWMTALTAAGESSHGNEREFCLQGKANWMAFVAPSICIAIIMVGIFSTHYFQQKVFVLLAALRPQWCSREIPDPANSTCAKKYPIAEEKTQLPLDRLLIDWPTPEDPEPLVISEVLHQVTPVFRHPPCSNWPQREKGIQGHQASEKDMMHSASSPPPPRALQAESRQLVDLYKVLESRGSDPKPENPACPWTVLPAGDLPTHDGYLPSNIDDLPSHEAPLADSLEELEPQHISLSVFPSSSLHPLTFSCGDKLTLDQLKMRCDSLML

T2: biotinylated recombinant human IL-12Rβ2 (human, UniProt Q99665 24-622, random biotinylated)
T2 construct: Recombinant protein produced in-house, biotinylated; also called hIL-12RB2; human IL-12RB2
T2 sequence: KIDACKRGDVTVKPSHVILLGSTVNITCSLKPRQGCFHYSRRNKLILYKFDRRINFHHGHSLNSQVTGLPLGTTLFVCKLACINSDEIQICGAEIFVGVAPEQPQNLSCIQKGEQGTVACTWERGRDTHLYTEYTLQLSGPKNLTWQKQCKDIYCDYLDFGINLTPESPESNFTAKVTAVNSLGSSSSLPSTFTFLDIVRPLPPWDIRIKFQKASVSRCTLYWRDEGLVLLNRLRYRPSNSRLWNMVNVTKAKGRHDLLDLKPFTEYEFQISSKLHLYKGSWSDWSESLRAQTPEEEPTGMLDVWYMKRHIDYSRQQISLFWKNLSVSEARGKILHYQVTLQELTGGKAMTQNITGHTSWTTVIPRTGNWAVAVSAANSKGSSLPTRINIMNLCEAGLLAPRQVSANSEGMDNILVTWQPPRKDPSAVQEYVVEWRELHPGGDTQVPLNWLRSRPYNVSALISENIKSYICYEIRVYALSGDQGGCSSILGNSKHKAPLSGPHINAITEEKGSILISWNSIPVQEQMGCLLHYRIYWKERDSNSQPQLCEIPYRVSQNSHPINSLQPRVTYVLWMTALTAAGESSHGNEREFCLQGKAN

T3: biotinylated recombinant mouse IL-12Rβ2 (mouse, UniProt P97378 24-637, random biotinylated)
T3 construct: Recombinant protein produced in-house, biotinylated; also called mIL-12RB2; mouse IL-12RB2
T3 sequence: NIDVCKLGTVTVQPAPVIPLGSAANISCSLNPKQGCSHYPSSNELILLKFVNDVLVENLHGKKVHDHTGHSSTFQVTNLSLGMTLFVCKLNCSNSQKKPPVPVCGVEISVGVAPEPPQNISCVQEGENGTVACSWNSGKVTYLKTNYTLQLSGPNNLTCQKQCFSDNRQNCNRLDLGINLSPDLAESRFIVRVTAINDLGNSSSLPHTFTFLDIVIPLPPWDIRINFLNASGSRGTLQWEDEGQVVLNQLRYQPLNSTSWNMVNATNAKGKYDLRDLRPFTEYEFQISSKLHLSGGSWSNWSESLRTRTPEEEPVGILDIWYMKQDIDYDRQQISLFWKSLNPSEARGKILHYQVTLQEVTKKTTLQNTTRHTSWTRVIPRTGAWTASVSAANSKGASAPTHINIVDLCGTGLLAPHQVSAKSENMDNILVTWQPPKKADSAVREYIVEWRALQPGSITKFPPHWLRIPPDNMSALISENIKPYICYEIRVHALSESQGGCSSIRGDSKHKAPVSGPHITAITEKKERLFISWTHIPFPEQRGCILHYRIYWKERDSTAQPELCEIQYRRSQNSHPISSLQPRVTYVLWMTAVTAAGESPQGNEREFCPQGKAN

B1: anti-IL-12Rβ2 VHH clone 3CRH93 (VHH, not shown: small tags and cut ends)
VHH: QVQLQESGGGLVQAGGSLRLSCAASGRTVDSYAMGWFRQTPGKEREFVAASWGGGSTYYADSVKGRFTISRDNVKNTMYLQMDSLKPEDTAVYYCAAGPTYYSGPINDNWEGRYDSWGQGTQVTVSS
notes: periplasmic extract
B2: anti-IL-12Rβ2 VHH clone 3CAHS153 (VHH, not shown: small tags and cut ends)
VHH: QVQLQESGGGLVQAGGSLRLSCAASGRTFSSYAMGWFRQVPGKERDFVAAVSWGGLSTYYADSVEGRFTISRDNAKNTVFLQMNSLKPEDTAVYYCAADRAYEGLGYGEYEYWGQGTQVTVSS
notes: periplasmic extract
B3: anti-IL-12Rβ2 VHH clone 20527 (VHH, not shown: small tags and cut ends)
VHH: QVQLQESGGGLVQAGGSLRLSCAASGFTLSTYAMSWVRQAPGKGLEWVSSISSSGASTNYADSVKGRFTISRDNAKNTLYLQMNSLKPEDTAVYYCAKASQNYSPPGQGTQVTVSS
notes: tested as periplasmic extract; also called 3CRMS90
B4: anti-IL-12Rβ2 VHH clone 20447 (VHH, not shown: small tags and cut ends)
VHH: B3 VHH with A14P, L29F, S30R, T31S, A56T, S57D, F68L, A75V
notes: tested as periplasmic extract; also called 2CRM39
B5: anti-IL-12Rβ2 VHH clone 20452 (VHH, not shown: small tags and cut ends)
VHH: B3 VHH with T28A, L29F, T31S, Y32V, S54G, A56H, S57D, D62N, A99S, Q101R
notes: tested as periplasmic extract; also called 2CRM84
B6: anti-IL-12Rβ2 VHH clone 20451 (VHH, not shown: small tags and cut ends)
VHH: B3 VHH with A14P, L29F, T31A, S54T, A56T, S57N, T58P, K98E, S100Y, Q101R
notes: tested as periplasmic extract; also called 2CRM83
B7: anti-IL-12Rβ2 VHH clone 3CAH34 (VHH, not shown: small tags and cut ends)
VHH: QVQLQESGGGSVQPGGSLRLSCGASGFTFSSFGMHWFRQAPGKGQEWAATISSSGGTTYYSDSVKGRFTISRDNAKNTLYLQMNSLKPEDTALYYCARDVTGAVRGQGTQVTVSS
notes: periplasmic extract; also called 20358
B8: anti-IL-12Rβ2 VHH clone 3CAHS172 (VHH, not shown: small tags and cut ends)
VHH: B7 VHH with P14A, A48V
notes: periplasmic extract
B9: anti-IL-12Rβ2 VHH clone 20510 (VHH, not shown: small tags and cut ends)
VHH: QVQLQESGGGLVQAGGSLRLSCAASGRTFSSYGMGWFRQAPGKEREFVAAISRGARITDYADSVKGRFTISRDNAKNTAYLQMNSLNPEDTAVYFCAAAYTYSGSHYVTARSSDYHSWGQGTQVTVSS
notes: tested as periplasmic extract; also called 3CAM31
B10: anti-IL-12Rβ2 VHH clone 20499 (VHH, not shown: small tags and cut ends)
VHH: B9 VHH with G54D, R56S, Q82E
notes: tested as periplasmic extract; also called 2CAM75
B11: anti-IL-12Rβ2 VHH clone 20505 (VHH, not shown: small tags and cut ends)
VHH: B9 VHH with L11S, G54D, Q82E
notes: tested as periplasmic extract; also called 3CAM4
B12: anti-IL-12Rβ2 VHH clone 20511 (VHH, not shown: small tags and cut ends)
VHH: B9 VHH with G16E, R19T, A23T, E46D, G54D, I57Y, R72K, S113G, H116N, S117Y
notes: tested as periplasmic extract; also called 3CAM36
B13: anti-IL-12Rβ2 VHH clone 20481 (VHH, not shown: small tags and cut ends)
VHH: B9 VHH with E46D, G54D, A75V, A79V
notes: tested as periplasmic extract; also called 2CAM38
B14: anti-IL-12Rβ2 VHH clone 20509 (VHH, not shown: small tags and cut ends)
VHH: B9 VHH with S25A, E46D, G54D, S117T, V124D
notes: tested as periplasmic extract; also called 3CAM30
B15: anti-IL-12Rβ2 VHH clone 20495 (VHH, not shown: small tags and cut ends)
VHH: B9 VHH with S31M, Y32H, G54D, H116N, S117Y
notes: tested as periplasmic extract; also called 2CAM69
B16: anti-IL-12Rβ2 VHH clone 20491 (VHH, not shown: small tags and cut ends)
VHH: B9 VHH with E46D, G54D, I57Y, R72K, S113G, H116N, S117Y
notes: tested as periplasmic extract; also called 2CAM57
B17: anti-IL-12Rβ2 VHH clone 20500 (VHH, not shown: small tags and cut ends)
VHH: B9 VHH with A14P, R27F, G54D, Q82E
notes: tested as periplasmic extract; also called 2CAM81
B18: anti-IL-12Rβ2 VHH clone 20514 (VHH, not shown: small tags and cut ends)
VHH: B9 VHH with G16D, A23I, R27P, T28S, G54D, Q82E
notes: tested as periplasmic extract; also called 3CAM70
B19: anti-IL-12Rβ2 VHH clone 20488 (VHH, not shown: small tags and cut ends)
VHH: B9 VHH with V12M, G16D
notes: tested as periplasmic extract; also called 2CAM48
B20: anti-IL-12Rβ2 VHH clone 20497 (VHH, not shown: small tags and cut ends)
VHH: B9 VHH with G16D
notes: tested as periplasmic extract; also called 2CAM72
B21: anti-IL-12Rβ2 VHH clone 20480 (VHH, not shown: small tags and cut ends)
VHH: B9 VHH with G54D, Q82E
notes: tested as periplasmic extract; also called 2CAM36
B22: anti-IL-12Rβ2 VHH clone 20504 (VHH, not shown: small tags and cut ends)
VHH: QVQLQESGGGLVQAGGSLKLSCAATGFILDYVGVGWFRQAPGKERDFVAAISRDARITDYADSVKGRFTISRDNAKNTAYLQMNSLNPEDTAVYFCAAAYTYSGSHYVTARSSDYHTWGQGTQVTVSS
notes: tested as periplasmic extract; also called 3CAM3
B23: anti-IL-12Rβ2 VHH clone 20469 (VHH, not shown: small tags and cut ends)
VHH: B9 VHH with A14P, E44K, G54D, Q82E
notes: tested as periplasmic extract; also called 2CAM8

Columns and labels:
human IL-12Rβ2 = target: T1, human IL-12Rβ2; assay: flow cytometry, P.E. on transfected HEK293T cells
[1] = target: T2, biotinylated recombinant human IL-12Rβ2; assay: ELISA, periplasmic extract on biotinylated hIL-12Rβ2, signal over control wells
[2] = target: T3, biotinylated recombinant mouse IL-12Rβ2; assay: ELISA, periplasmic extract on biotinylated mIL-12Rβ2, signal over control wells

| Binder | % cells bound (human IL-12Rβ2) | dMFI (human IL-12Rβ2) | ELISA binding hIL-12RB2/control [1] | ELISA binding mIL-12RB2/control [2] |
| --- | --- | --- | --- | --- |
| B1 | 31.5% | 580 | – | – |
| B2 | 36.8% | 789 | – | – |
| B3 | – | – | 0.834 ratio | 9.93 ratio |
| B4 | – | – | 1.4 ratio | 11.8 ratio |
| B5 | – | – | 0.989 ratio | 7.52 ratio |
| B6 | – | – | 1.26 ratio | 33.5 ratio |
| B7 | 34.6% | 620 | – | – |
| B8 | 43% | 1020 | – | – |
| B9 | – | – | 1.2 ratio | 16.4 ratio |
| B10 | – | – | 0.985 ratio | 10.4 ratio |
| B11 | – | – | 1.07 ratio | 20.2 ratio |
| B12 | – | – | 1.2 ratio | 25.6 ratio |
| B13 | – | – | 0.983 ratio | 15.8 ratio |
| B14 | – | – | 1.31 ratio | 10 ratio |
| B15 | – | – | 0.924 ratio | 15.8 ratio |
| B16 | – | – | 1 ratio | 14.4 ratio |
| B17 | – | – | 0.982 ratio | 24 ratio |
| B18 | – | – | 1.03 ratio | 17.8 ratio |
| B19 | – | – | 0.973 ratio | 12.9 ratio |
| B20 | – | – | 0.932 ratio | 13.4 ratio |
| B21 | – | – | 0.979 ratio | 18.1 ratio |
| B22 | – | – | 1.27 ratio | 14.5 ratio |
| B23 | – | – | 1.05 ratio | 22 ratio |
